Laboratory results published in US20230192896A1 (BIOVERATIV THERAPEUTICS, published 2023).
Numbering of substitutions follows the chain as printed. Each block holds one binder with its values, some of them ahead of it.

Columns and labels:
[1] = target: T1, non-activatable Factor X (FXn) (Homo sapiens (Human), UniProt P00742 41-488, single biotin on the C-terminal BioTag); test: BLI; class meaning: paragraph 285
T1 construct: also called BIIB-FX-015

FIXa-SM (FIXa+EGR-CMK) = target: T2, FIXa-SM (FIXa+EGR-CMK) (human, UniProt P00740 47-191; P00740 227-461, EGR-CMK (L-Glu-Gly-Arg chloromethyl ketone) covalently bound to the active site); test: BLI; class meaning: paragraph 914
T2 construct: BLI antigen bought from Haematologic Technologies (HCIXA-EGR); also called FIXa with substrate mimic

B1: BIIB-12-1322 (antibody, V domains shown)
VH: QVQLVQSGAEVKKPGASVKVSCKASGYTFTSYYIHWVRQAPGQGLEWMGIINPSGGSTSYAQKFQGRVTMTRDTSTSTVYMELSSLRSEDTAVYYCARSRQRHRGDWYFDLWGRGTLVTVSS
VL: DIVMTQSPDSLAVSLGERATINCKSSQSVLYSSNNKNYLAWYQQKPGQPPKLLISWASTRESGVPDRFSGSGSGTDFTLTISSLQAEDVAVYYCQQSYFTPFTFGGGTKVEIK
notes: IgG
binding result [1]: binds

B2: BIIB-12-1319 (antibody, V domains shown)
VH: QVQLVESGGGVVQPGRSLRLSCAASGFTFSSYGMHWVRQAPGKGLEWVAVISYDGSNKYYADSVKGRFTISRDNSKNTLYLQMNSLRAEDTAVYYCARTGYHRSVYYWGQGTLVTVSS
VL: EIVMTQSPATLSVSPGERATLSCRASQSVSSNLAWYQQKPGQAPRLLIYGASTRATGIPARFSGSGSGTEFTLTISSLQSEDFAVYYCQQASNFPPTFGGGTKVEI
notes: IgG
binding result [1]: binds

B3: BIIB-12-1330 (antibody, V domains shown)
VH: B2 VH with R98K, T99G, Y101S, H102A, S104W, V105I, Y106N, Y107I, L113T
VL: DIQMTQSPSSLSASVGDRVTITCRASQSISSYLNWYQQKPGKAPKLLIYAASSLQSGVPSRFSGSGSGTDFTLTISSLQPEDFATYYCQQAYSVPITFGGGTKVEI
notes: IgG
binding result [1]: binds

B4: BIIB-12-1325 (antibody, V domains shown)
VH: QVQLVQSGAEVKKPGASVKVSCKASGYTFTSYYMVWVRQAPGQGLEWMGIINPSGGSTSYAQKFQGRVTMTRDTSTSTVYMELSSLRSEDTAVYYCARGGRYMLDPWGQGTLVTVSS
VL: DIQMTQSPSTLSASVGDRVTITCRASQSISSWLAWYQQKPGKAPKLLIYKASSLESGVPSRFSGSGSGTEFTLTISSLQPDDFATYYCQQSNRYPRTFGGGTKVEIK
notes: IgG
binding result [1]: binds

B5: BIIB-12-1305 (antibody, V domains shown)
VH: QVQLVESGGGVVQPGRSLRLSCAASGFTFSSYGMHWVRQAPGKGLEWVAVISYDGSNKYYADSVKGRFTISRDNSKNTLYLQMNSLRAEDTAVYYCAKLGGRWSSDFQHWGQGTLVTVSS
VL: EIVLTQSPATLSLSPGERATLSCRASQSVSSYLAWYQQKPGQAPRLLIYDASNRATGIPARFSGSGSGTDFTLTISSLEPEDFAVYYCQQSANWPPTFGGGTKVEIK
notes: IgG
binding result [1]: binds

B6: BIIB-12-1318 (antibody, V domains shown)
VH: QVQLVESGGGVVQPGRSLRLSCAASGFTFSSYGMHWVRQAPGKGLEWVAVISYDGSNKYYADSVKGRFTISRDNSKNTLYLQMNSLRAEDTAVYYCARKGDYRSGSYSGRAFGIWGQGTMVTVSS
VL: B5 VL with S91L, A92N
notes: IgG
binding result [1]: binds

B7: BIIB-12-1310 (antibody, V domains shown)
VH: EVQLVESGGGLVKPGGSLRLSCAASGFTFSSYSMNWVRQAPGKGLEWVSSISSSSSYIYYADSVKGRFTISRDNAKNSLYLQMNSLRAEDTAVYYCARLGGYGSSQRYFDLWGRGTLVTVSS
VL: B5 VL with S31R, Q89E, S91A, A92S
notes: IgG
binding result [1]: binds

B8: BIIB-12-1333 (antibody, V domains shown)
VH: QVQLVQSGAEVKKPGASVKVSCKASGYTFTSYYMVWVRQAPGQGLEWMGIINPSGGSTSYAQKFQGRVTMTRDTSTSTVYMELSSLRSEDTAVYYCARVSRRDYPLAFDIWGQGTMVTVSS
VL: EIVMTQSPATLSVSPGERATLSCRASQSVSSNLAWYQQKPGQAPRLLIYGASTRATGIPARFSGSGSGTEFTLTISSLQSEDFAVYYCQQVNTWPTFGGGTKVEIK
notes: IgG
binding result [1]: binds

B9: BIIB-12-1326 (antibody, V domains shown)
VH: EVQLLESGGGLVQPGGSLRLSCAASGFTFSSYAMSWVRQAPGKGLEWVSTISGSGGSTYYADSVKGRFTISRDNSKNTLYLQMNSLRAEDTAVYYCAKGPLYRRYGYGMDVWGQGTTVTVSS
VL: EIVLTQSPGTLSLSPGERATLSCRASQSVRSSYLAWYQQKPGQAPRLLIYGASSRATGIPDRFSGSGSGTDFTLTISRLEPEDFAVYYCQQAYSSPLTFGGGTKVEIK
notes: IgG
binding result [1]: binds

B10: BIIB-12-1324 (antibody, V domains shown)
VH: QVQLVQSGAEVKKPGASVKVSCKASGYTFTSYYMVWVRQAPGQGLEWMGIINPSGGSTSYAQKFQGRVTMTRDTSTSTVYMELSSLRSEDTAVYYCARLPRYSKRGLDVWGQGTMVTVSS
VL: EIVMTQSPATLSLSPGERATLSCRASQSVSSYLAWYQQKPGQAPRLLIYDSSNRATGIPARFSGSGSGTDFTLTISSLEPEDFAVYYCQQLVSWPTFGGGTKVEIK
notes: IgG
binding result [1]: binds

B14: BIIB-12-1312 (antibody, V domains shown)
VH: QVQLVESGGGVVQPGRSLRLSCAASGFTFSSYGMHWVRQAPGKGLEWVAVISYDGSNKYYADSVKGRFTISRDNSKNTLYLQMNSLRAEDTAVYYCAKGMGHWIDYWGQGTLVTVSS
VL: DIQMTQSPSSVSASVGDRVTITCRASQGISSWLAWYQQKPGKAPKLLIYAASSLQSGVPSRFSGSGSGTDFTLTISSLQPEDFATYYCQQASSFPPTFGGGTKVEIK
notes: IgG
binding result [1]: binds

B22: BIIB-9-606 (antibody, V domains shown)
VH: QVQLVQSGAEVKKPGASVKVSCKASGYTFTSYYMHWVRQAPGQGLEWMGIINPSGGSTSYAQKFQGRVTMTRDTSTSTVYMELSSLRSEDTAVYYCARTKWSSSPYGMDVWGQGTTVTVSS
VL: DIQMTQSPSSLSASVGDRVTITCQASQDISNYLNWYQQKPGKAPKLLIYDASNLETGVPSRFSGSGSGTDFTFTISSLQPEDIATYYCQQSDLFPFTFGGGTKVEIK
notes: IgG
binding result (FIXa-SM (FIXa+EGR-CMK)): binds

Next, values leading:

binding result (FIXa-SM (FIXa+EGR-CMK)): binds
B11: BIIB-9-581 (antibody, V domains shown)
VH: QVQLVQSGAEVKKPGASVKVSCKASGYTFTSYYMHWVRQAPGQGLEWMGIINPSGGSTSYAQKFQGRVTMTRDTSTSTVYMELSSLRSEDTAVYYCARDPLYYREGYVFDYWGQGTLVTVSS
VL: B14 VL with V11L, G28S, W32Y, A34N, A91S, S92D, S93L, P96F
notes: IgG

binding result [1]: binds
B12: BIIB-12-1323 (antibody, V domains shown)
VH: QVQLVQSGAEVKKPGASVKVSCKASGYTFTSYYIHWVRQAPGQGLEWMGIINPSGGSTSYAQKFQGRVTMTRDTSTSTVYMELSSLRSEDTAVYYCARGRRFPRGLDYWGQGTLVTVSS
VL: B14 VL with S92N, S93I, P96F
notes: IgG

binding result [1]: binds
B13: BIIB-12-1332 (antibody, V domains shown)
VH: B12 VH with I34M, H35S, G99L, R100G, F102K, P103S, G105V, L106F, Y108I, L114M
VL: B14 VL with A91V, S92N, P96L, I106F
notes: IgG

binding result [1]: binds
B15: BIIB-12-1307 (antibody, V domains shown)
VH: QVQLQESGPGLVKPSETLSLTCAVSGYSISSGYYWAWIRQPPGKGLEWIGSIYHSGSTYYNPSLKSRVTISVDTSKNQFSLKLSSVTAADTAVYYCARGPLPRSRGLAFDIWGQGTMVTVSS
VL: B14 VL with M4L, V11L, G28S, W32F, A34N, A91T, S92Y, F94T, P96L
notes: IgG

binding result [1]: binds
B16: BIIB-12-1317 (antibody, V domains shown)
VH: B14 VH with K98R, M100V, H102G, W103H, I104D, D105T, Y106R
VL: B14 VL with A91R, S92H, F94L
notes: IgG

binding result [1]: binds
B17: BIIB-12-1313 (antibody, V domains shown)
VH: QVQLVESGGGVVQPGRSLRLSCAASGFTFSSYGMHWVRQAPGKGLEWVAVISYDGSNKYYADSVKGRFTISRDNSKNTLYLQMNSLRAEDTAVYYCAKGTGWWRYWGQGTLVTVSS
VL: EIVMTQSPATLSVSPGERATLSCRASQSVSSNLAWYQQKPGQAPRLLIYGASTRATGIPARFSGSGSGTEFTLTISSLQSEDFAVYYCQQHNHLPITFGGGTKVEIK
notes: IgG

binding result [1]: binds
B18: BIIB-12-1329 (antibody, V domains shown)
VH: QVQLVESGGGVVQPGRSLRLSCAASGFTFSSYGMHWVRQAPGKGLEWVAVISYDGSNKYYADSVKGRFTISRDNSKNTLYLQMNSLRAEDTAVYYCARGGAGSRYFQHWGQGTLVTVSS
VL: B17 VL with L11K, G50S, H91V, N92F, H93N, L94W, I96P, E105K
notes: IgG

binding result [1]: binds
B19: BIIB-12-1327 (antibody, V domains shown)
VH: QVQLVESGGGVVQPGRSLRLSCAASGFTFSSYGMHWVRQAPGKGLEWVAVISYDGSNKYYADSVKGRFTISRDNSKNTLYLQMNSLRAEDTAVYYCAKLGLARGGGYGMDVWGQGTTVTVSS
VL: B17 VL with L11Q, S12Y, H91Y, N92H, H93N, L94F, I96P
notes: IgG

binding result [1]: binds
B20: BIIB-12-1328 (antibody, V domains shown)
VH: QLQLQESGPGLVKPSETLSLTCTVSGGSISSSSYYWGWIRQPPGKGLEWIGSIYYSGSTYYNPSLKSRVTISVDTSKNQFSLKLSSVTAADTAVYYCARDPAYYSGHDYYYYGMDVWGQGTTVTVSS
VL: B17 VL with H91P, H93S, L94Y, I96L
notes: IgG

binding result [1]: binds
B21: BIIB-12-1306 (antibody, V domains shown)
VH: QVQLQESGPGLVKPSQTLSLTCTVSGGSISSGGYYWSWIRQHPGKGLEWIGSIYYSGSTYYNPSLKSRVTISVDTSKNQFSLKLSSVTAADTAVYYCARGAGGSAPWGQGTLVTVSS
VL: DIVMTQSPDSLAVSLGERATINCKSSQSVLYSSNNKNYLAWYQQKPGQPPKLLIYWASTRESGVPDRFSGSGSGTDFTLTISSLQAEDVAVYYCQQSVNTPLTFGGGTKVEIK
notes: IgG

binding result (FIXa-SM (FIXa+EGR-CMK)): binds
B23: BIIB-9-569 (antibody, V domains shown)
VH: B22 VH with T99D, K100G, W101S, S102G, S103Y, G107S, M108F, V110P, T116L
VL: DIQMTQSPSSLSASVGDRVTITCQASQDISNYLNWYQQKPGKAPKLLIYDASNLATGVPSRFSGSGSGTDFTFTISSLQPEDIATYYCQQADDFPFTFGGGTKVEIK
notes: IgG

binding result [1]: binds
B24: BIIB-12-1315 (antibody, V domains shown)
VH: QVQLVQSGAEVKKPGASVKVSCKASGYTFTSYYMVWVRQAPGQGLEWMGIINPSGGSTSYAQKFQGRVTMTRDTSTSTVYMELSSLRSEDTAVYYCARGRPSSKRVTYFDYWGQGTLVTVSS
VL: EIVMTQSPATLSVSPGERATLSCRASQSVSSNLAWYQQKPGQAPRLLIYGASTRATGIPARFSGSGSGTEFTLTISSLQSEDFAVYYCQQVFNWPPWTFGGGTKVEIK
notes: IgG
